Values of other authors, collected in PMC7617445.
pKd: −log10 of the molar value.

Molecular target: IL-18 (Homo sapiens) (UniProt Q14116)
Sequence (Q14116 37-193): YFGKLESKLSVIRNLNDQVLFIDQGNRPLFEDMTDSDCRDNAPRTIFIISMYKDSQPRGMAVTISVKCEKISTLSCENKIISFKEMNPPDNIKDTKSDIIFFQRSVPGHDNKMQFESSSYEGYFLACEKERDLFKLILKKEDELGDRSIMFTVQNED

IL-18BP, sequence (O95998 31-194): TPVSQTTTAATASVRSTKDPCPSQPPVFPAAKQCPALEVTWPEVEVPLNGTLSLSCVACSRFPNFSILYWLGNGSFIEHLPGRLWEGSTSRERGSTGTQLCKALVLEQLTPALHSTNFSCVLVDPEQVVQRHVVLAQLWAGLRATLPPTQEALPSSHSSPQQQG

## IL-18BP (from UniProt O95998)
  pKd: 10.00
